Results published in patent WO1994029351A2.

Columns and labels:
[1] = target: FcγRI on IFNγ stimulated U937 cells (UniProt P12314); assay: 50% inhibition of binding of FITC-labelled mouse lgG2a antibody to U937 cells, FACS
[2] = target: guinea pig complement (serum); assay: cell-based or functional assay
[3] = target: Purified human C1q (Sigma UK) (human) (UniProt P02745); assay: cell-based or functional assay
[4] = target: FcγRIII on human peripheral blood mononuclear effector cells (human) (UniProt P08637); assay: cell-based or functional assay
Sequence of FcγRIII on human peripheral blood mononuclear effector cells (human) (P08637 17-254): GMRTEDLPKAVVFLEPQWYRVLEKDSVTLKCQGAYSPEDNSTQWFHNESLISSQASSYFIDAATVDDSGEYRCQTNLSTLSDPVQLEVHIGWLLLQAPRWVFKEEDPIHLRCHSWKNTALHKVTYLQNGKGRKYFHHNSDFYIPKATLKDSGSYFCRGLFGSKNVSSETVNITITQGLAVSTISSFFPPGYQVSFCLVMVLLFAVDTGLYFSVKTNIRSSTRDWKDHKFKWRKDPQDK

Sequence of Purified human C1q (Sigma UK) (human) (P02745 23-245 limits assumed, chain 1 of 3): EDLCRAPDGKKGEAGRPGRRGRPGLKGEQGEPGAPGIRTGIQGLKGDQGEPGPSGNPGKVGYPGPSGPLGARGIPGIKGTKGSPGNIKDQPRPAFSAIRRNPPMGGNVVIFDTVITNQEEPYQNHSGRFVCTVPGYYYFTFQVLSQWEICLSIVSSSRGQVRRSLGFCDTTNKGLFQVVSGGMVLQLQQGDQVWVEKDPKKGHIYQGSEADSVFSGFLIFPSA
Sequence of Purified human C1q (Sigma UK) (human) (P02746 28-253 limits assumed, chain 2 of 3, further chain): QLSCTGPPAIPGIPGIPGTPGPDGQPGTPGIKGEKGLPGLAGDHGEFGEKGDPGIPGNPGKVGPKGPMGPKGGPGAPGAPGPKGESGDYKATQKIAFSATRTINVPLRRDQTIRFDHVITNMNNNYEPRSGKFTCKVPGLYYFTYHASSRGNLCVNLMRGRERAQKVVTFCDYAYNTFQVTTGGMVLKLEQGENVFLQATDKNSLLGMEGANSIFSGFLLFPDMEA
Sequence of Purified human C1q (Sigma UK) (human) (P02747 29-245 limits assumed, chain 3 of 3, further chain): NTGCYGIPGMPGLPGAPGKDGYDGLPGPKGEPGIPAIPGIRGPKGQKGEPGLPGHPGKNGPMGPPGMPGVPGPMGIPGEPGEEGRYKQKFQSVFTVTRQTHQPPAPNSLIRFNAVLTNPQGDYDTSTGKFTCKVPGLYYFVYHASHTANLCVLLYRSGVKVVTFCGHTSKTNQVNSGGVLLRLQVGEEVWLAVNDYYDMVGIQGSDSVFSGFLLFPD
Sequence of FcγRI on IFNγ stimulated U937 cells (P12314 16-374 limits assumed): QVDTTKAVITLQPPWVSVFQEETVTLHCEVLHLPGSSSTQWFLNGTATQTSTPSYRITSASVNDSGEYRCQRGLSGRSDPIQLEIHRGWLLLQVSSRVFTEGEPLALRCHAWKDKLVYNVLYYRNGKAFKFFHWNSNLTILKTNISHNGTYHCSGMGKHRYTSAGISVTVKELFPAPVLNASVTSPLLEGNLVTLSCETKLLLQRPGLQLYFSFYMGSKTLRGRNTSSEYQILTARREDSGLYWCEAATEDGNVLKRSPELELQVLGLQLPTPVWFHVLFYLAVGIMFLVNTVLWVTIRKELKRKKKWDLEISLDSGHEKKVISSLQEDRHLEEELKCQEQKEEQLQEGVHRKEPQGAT

Row | Substance | IC50 [1] | plateau level killing with guinea pig complement [2] | maximum cell killing by human complement [3] | mg/ml antibody necessary for half maximal cell killing by human complement [3] | percent plateau cell killing by human complement [3] | ng/ml antibody necessary for half maximal cell killing in ADCC [4] | maximum killing in ADCC [4] | ng/ml antibody necessary for half maximal cell killing in ADCC (extrapolated value) [4]
1 | chimeric L243 human lgG1 wild type (from UniProt P01857 1-330; P01834 1-107) (antibody) | 130 µg/mL | 80% | 64% | 0.6 mg/mL | 65% |  |  | 
2 | chimeric L243 G1[L235E] (from UniProt P01857 1-330; P01834 1-107) (antibody) |  | 40% |  | > 20 mg/mL | 0% |  |  | 
3 | chimeric L243 G1[G237A] (from UniProt P01857 1-330; P01834 1-107) (antibody) |  |  |  | 2 mg/mL | 20% |  |  | 
4 | chimeric L243 human lgG2 (from UniProt P01859 1-326; P01834 1-107) (antibody) |  |  |  | > 20 mg/mL | 0% | > 100000 ng/mL |  | 
5 | chimeric L243 human lgG4 (from UniProt P01861 1-327; P01834 1-107) (antibody) | 1200 µg/mL |  |  | > 20 mg/mL | 0% |  | 20% | 10000 ng/mL
6 | chimeric L243 G1[K320A] (from UniProt P01857 1-330; P01834 1-107) (antibody) |  |  |  | 0.6 mg/mL | 70% | 10 ng/mL |  | 
7 | chimeric L243 G4[L235E] (from UniProt P01861 1-327; P01834 1-107) (antibody) |  |  |  | > 20 mg/mL | 0% | > 100000 ng/mL |  | 
8 | chimeric L243 G1[L235A] (from UniProt P01857 1-330; P01834 1-107) (antibody) |  | 49% |  | > 20 mg/mL | 0% | 9 ng/mL |  | 
